Assay results: patent US20230140293A1

Experiments:
[1] = target: CH0505.w4.3 Env, Env-pseudotyped virus produced in 293T cells (HIV-1); test: cell-based or functional assay
[2] = target: CH0505TF Env, Env-pseudotyped virus produced in 293T cells (HIV-1); test: cell-based or functional assay
[3] = target: CH0505TF Env, pseudotyped virus produced in 293S GnTI- cells (HIV-1); test: cell-based or functional assay
[4] = target: CH0505TF.G458Y Env, Env-pseudotyped virus produced in 293T cells (HIV-1); test: cell-based or functional assay
[5] = target: CH0505TF.G458Y Env, pseudotyped virus produced in 293S GnTI- cells (HIV-1); test: cell-based or functional assay
[6] = target: CH0505TF.gly3.197 Env, Env-pseudotyped virus produced in 293T cells (HIV-1); test: cell-based or functional assay
[7] = target: CH0505TF.gly3.197 Env, pseudotyped virus produced in 293S GnTI- cells (HIV-1); test: cell-based or functional assay
[8] = target: CH0505TF.gly3.276 Env, Env-pseudotyped virus produced in 293T cells (HIV-1); test: cell-based or functional assay
[9] = target: CH0505TF.gly3.276 Env, pseudotyped virus produced in 293S GnTI- cells (HIV-1); test: cell-based or functional assay
[10] = target: CH0505TF.gly3.461 Env, Env-pseudotyped virus produced in 293T cells (HIV-1); test: cell-based or functional assay
[11] = target: CH0505TF.gly3.461 Env, pseudotyped virus produced in 293S GnTI- cells (HIV-1); test: cell-based or functional assay
[12] = target: CH0505TF.gly4 Env, Env-pseudotyped virus produced in 293T cells (HIV-1); test: cell-based or functional assay
[13] = target: CH0505TF.gly4 Env, pseudotyped virus produced in 293S GnTI- cells (HIV-1); test: cell-based or functional assay
[14] = target: HIV-1 426c.DM (N460D/N463D) Env on Env-pseudotyped virus produced in 293T cells (HIV-1); test: cell-based or functional assay
[15] = target: HIV-1 426c.DM (N460D/N463D) Env on Env-pseudotyped virus produced in 293s/GnTI-/- cells (Man5-enrichment) (HIV-1); test: cell-based or functional assay
[16] = target: HIV-1 426c.SM (N276D) Env on Env-pseudotyped virus produced in 293T cells (HIV-1); test: cell-based or functional assay
[17] = target: HIV-1 426c.SM (N276D) Env on Env-pseudotyped virus produced in 293s/GnTI-/- cells (Man5-enrichment) (HIV-1); test: cell-based or functional assay
[18] = target: HIV-1 426c.TM (N276D/N460D/N463D) Env on Env-pseudotyped virus produced in 293T cells (HIV-1); test: cell-based or functional assay
[19] = target: HIV-1 426c.TM (N276D/N460D/N463D) Env on Env-pseudotyped virus produced in 293s/GnTI-/- cells (Man5-enrichment) (HIV-1); test: cell-based or functional assay
[20] = target: HIV-1 Env 426c, Env-pseudotyped virus produced in 293S GnTI- cells (Man5-enriched) (HIV-1 clade C strain 426c); test: cell-based or functional assay
[21] = target: HIV-1 Env 426c, Env-pseudotyped virus produced in 293T cells (HIV-1 clade C strain 426c); test: cell-based or functional assay
[22] = target: HIV-1 Env 426c.DM (N460D.N463D), Env-pseudotyped virus produced in 293S GnTI- cells (Man5-enriched) (HIV-1 clade C strain 426c); test: cell-based or functional assay
[23] = target: HIV-1 Env 426c.DM (N460D.N463D), Env-pseudotyped virus produced in 293T cells (HIV-1 clade C strain 426c); test: cell-based or functional assay
[24] = target: HIV-1 Env 426c.SM (N276D), Env-pseudotyped virus produced in 293S GnTI- cells (Man5-enriched) (HIV-1 clade C strain 426c); test: cell-based or functional assay
[25] = target: HIV-1 Env 426c.SM (N276D), Env-pseudotyped virus produced in 293T cells (HIV-1 clade C strain 426c); test: cell-based or functional assay
[26] = target: HIV-1 Env 426c.TM (N276D.N460D.N463D), Env-pseudotyped virus produced in 293S GnTI- cells (Man5-enriched) (HIV-1 clade C strain 426c); test: cell-based or functional assay
[27] = target: HIV-1 Env 426c.TM (N276D.N460D.N463D), Env-pseudotyped virus produced in 293T cells (HIV-1 clade C strain 426c); test: cell-based or functional assay
[28] = target: HIV-1 Env 426c.TM4 (S278R.G471S.N460D.N463D), Env-pseudotyped virus produced in 293S GnTI- cells (Man5-enriched) (HIV-1 clade C strain 426c); test: cell-based or functional assay
[29] = target: HIV-1 Env 426c.TM4 (S278R.G471S.N460D.N463D), Env-pseudotyped virus produced in 293T cells (HIV-1 clade C strain 426c); test: cell-based or functional assay
[30] = target: HIV-1 clade C strain 426c Env on Env-pseudotyped virus produced in 293T cells (HIV-1); test: cell-based or functional assay
[31] = target: HIV-1 clade C strain 426c Env on Env-pseudotyped virus produced in 293s/GnTI-/- cells (Man5-enrichment) (HIV-1); test: cell-based or functional assay
[32] = target: HIV-1 CH0505TF (CH505 transmitted/founder) Env on Env-pseudotyped virus produced in 293T cells (HIV-1); test: cell-based or functional assay
[33] = target: HIV-1 CH0505TF.G458Y Env on Env-pseudotyped virus produced in 293T cells (HIV-1); test: cell-based or functional assay
[34] = target: HIV-1 CH0505TF.N280D Env on Env-pseudotyped virus produced in 293T cells (HIV-1); test: cell-based or functional assay
[35] = target: HIV-1 CH0505TF.S365P Env on Env-pseudotyped virus produced in 293T cells (HIV-1); test: cell-based or functional assay
[36] = target: CH505 M11 gp120 (HIV-1); test: ELISA, gp120 on plate
[37] = target: CH505 M5 gp120 (HIV-1); test: ELISA, gp120 on plate
[38] = target: CH505 transmitted/founder (TF) gp120 (HIV-1); test: ELISA, gp120 on plate
[39] = target: CH505 w020.14 gp120 (HIV-1); test: ELISA, gp120 on plate
[40] = target: CH505 w030.28 gp120 (HIV-1); test: ELISA, gp120 on plate
[41] = target: CH505 w053.16 gp120 (HIV-1); test: ELISA, gp120 on plate
[42] = target: CH505 w078.15 gp120 (HIV-1); test: ELISA, gp120 on plate

Substance: 3BNC117 (antibody)
- IC50 (µg/ml) in TZM-bl [1]: 0.02 µg/mL
- IC50 (µg/ml) in TZM-bl [2]: 0.03 µg/mL
- IC50 (µg/ml) in TZM-bl [3]: 0.01 µg/mL
- IC50 (µg/ml) in TZM-bl [4]: > 25 µg/mL
- IC50 (µg/ml) in TZM-bl [5]: 18 µg/mL
- IC50 (µg/ml) in TZM-bl [6]: 0.005 µg/mL
- IC50 (µg/ml) in TZM-bl [7]: 0.004 µg/mL
- IC50 (µg/ml) in TZM-bl [8]: 0.001 µg/mL
- IC50 (µg/ml) in TZM-bl [9]: 0.001 µg/mL
- IC50 (µg/ml) in TZM-bl [10]: 0.002 µg/mL
- IC50 (µg/ml) in TZM-bl [11]: 0.002 µg/mL
- IC50 (µg/ml) in TZM-bl [12]: 0.001 µg/mL
- IC50 (µg/ml) in TZM-bl [13]: 0.001 µg/mL
- ID50/IC50 in TZM-bl [14]: 0.13 µg/mL
- ID50/IC50 in TZM-bl [15]: 0.006 µg/mL
- ID50/IC50 in TZM-bl [16]: 0.24 µg/mL
- ID50/IC50 in TZM-bl [17]: 0.01 µg/mL
- ID50/IC50 in TZM-bl [18]: 0.01 µg/mL
- ID50/IC50 in TZM-bl [19]: 0.003 µg/mL
- IC50 (µg/ml) in TZM-bl [20]: 0.02 µg/mL
- IC50 (µg/ml) in TZM-bl [21]: 0.2 µg/mL
- IC50 (µg/ml) in TZM-bl [22]: 0.006 µg/mL
- IC50 (µg/ml) in TZM-bl [23]: 0.13 µg/mL
- IC50 (µg/ml) in TZM-bl [24]: 0.01 µg/mL
- IC50 (µg/ml) in TZM-bl [25]: 0.24 µg/mL
- IC50 (µg/ml) in TZM-bl [26]: 0.003 µg/mL
- IC50 (µg/ml) in TZM-bl [27]: 0.01 µg/mL
- IC50 (µg/ml) in TZM-bl [28]: < 0.001 µg/mL
- IC50 (µg/ml) in TZM-bl [29]: 0.003 µg/mL
- ID50/IC50 in TZM-bl [30]: 0.2 µg/mL
- ID50/IC50 in TZM-bl [31]: 0.02 µg/mL
- IC50 (µg/ml) in TZM-bl [32]: 0.03 µg/mL
- IC50 (µg/ml) in TZM-bl [33]: > 25 µg/mL
- IC50 (µg/ml) in TZM-bl [34]: > 25 µg/mL
- IC50 (µg/ml) in TZM-bl [35]: 0.01 µg/mL

Substance: CH103 lineage intermediate ancestor IA3 (antibody)
- log AUC [36]: 11.8 log AUC
- log AUC [37]: 6.8 log AUC
- log AUC [38]: 11 log AUC
- log AUC [39]: 9.5 log AUC
- log AUC [40]: 7.7 log AUC
- log AUC [41]: 1.1 log AUC
- log AUC [42]: 3 log AUC

Substance: CH103 lineage intermediate ancestor IA4 (antibody)
- log AUC [36]: 10.5 log AUC
- log AUC [37]: 3.8 log AUC
- log AUC [38]: 10.1 log AUC
- log AUC [39]: 8.6 log AUC
- log AUC [40]: 6.5 log AUC
- log AUC [41]: 0.2 log AUC
- log AUC [42]: 1.3 log AUC

Substance: CH103 lineage intermediate ancestor IA6 (antibody)
- log AUC [36]: 10 log AUC
- log AUC [37]: 3.3 log AUC
- log AUC [38]: 9.1 log AUC
- log AUC [39]: 7.9 log AUC
- log AUC [40]: 6.3 log AUC
- log AUC [42]: 1 log AUC
